Source: patent publication US9157088B2, “Transferases, epimerases, polynucleotides encoding these and uses thereof” (priority 2007, dated 2015)

B1: kiwifruit GDP-L-Galactose Guanyltransferase EST 319998 (Actinidia chinensis var. chinensis) (protein)
chain: MLKIKRVPTVVSNFQKDEAEDGARSGGGCGRNCLQKCCIQGAKLPLYAFKRVKEVVGEKGLLAVDDEEAPVAFLDSLLLGEWEDRVQRGLFRYDVTACETKVIPGEYGFIAQLNEGRHLKKRPTEFRVDKVLQPFDESKFNFTKVGQEEVLFQFEASDDNEVQFFPNAPVDVENSPSVVAINVSPIEYGHVLLIPRILECLPQRIDRESFLLALHMAAEAGNPYFRLGYNSLGAFATINHLHFQAYYLAVPFPIEKAPTRKITTLNGGVKISDLLNYPVRGLVFEGGNSLEDLSNAVSDSSICLQGNNIPYNVLISDSGKCIFLLPQCYAEKQALGEVSSDLLDTQVNPAVWEISGHMVLKRKEDYEEASEGNAWRLLAEVSLSEERFEEVKALIFEAISCADDRSGSTAENLLEEPDDNPQSRKVANDALNKGSHRGMVPGKQECLVQH

Legend:
[1] = format: physicochemical
Source text: GDP-L-Galactose (˜50% pure, contaminated with the breakdown products GDP and L-Galactose-1-Phosphate as shown by HPLC and LCMS) and L-Galactose-1-Phosphate were purchased from Glycoteam, Hamburg, Germany. […] Other biochemicals were purchased from Sigma.

[2] = target: T1, kiwifruit GDP-L-Galactose Guanyltransferase EST 319998 (Actinidia chinensis, UniProt A0A2R6QD99); test: Fixed time transferase assay, aliquots measured using coupling enzymes; format: biochemical; settings: acceptor Mannose-1-P; 0.057 ug protein
Procedure: The assay for GDP-L-Galactose-1-Phosphate Guanyltransferase was run in 20 mM TrisCl, pH 8.0, GDP-L-Galactose, with 1 mM D-Mannose-1-Phosphate. GDP-L-Galactose was either used directly from the Glycoteam product (in which case high backgrounds were observed due to contaminating L-Galactose-1-Phosphate) or GDP-L-Galactose was generated using the epimerase. In the latter case, 0.21 mg of epimerase was incubated with GDP-D-Mannose in 20 mM Tris Cl pH 8 in a total volume of 400 μL (see Wolucka et al., 2001) for 30 minutes at 20 C and then used directly in the assay at a 1 to 20 dilution. Assays were either terminated after 10 minutes by heating to 100 C for three minutes, or directly coupled to the phosphatase and L-Galactose dehydrogenase to measure product formation during the assay. […] Assays for L-Galactose were linear with added L-Galactose-1-Phosphate over the range measured. […]
(§1) The applicants used two assays to characterise the enzyme, using two sources of the substrate GDP-L-Galactose. […] The applicants either measured the product formed by adding the coupling enzymes in the assay and measuring the time course of NADH formed, or by stopping the reaction after 10 minutes by boiling for 3 minutes and centrifuging. […]

[3] = target: T1, kiwifruit GDP-L-Galactose Guanyltransferase EST 319998; test: Fixed time transferase assay, aliquots measured by LCMS; format: biochemical; settings: acceptor Mannose-1-P; 0.057 ug protein
Procedure: (§2) The assay for GDP-L-Galactose-1-Phosphate Guanyltransferase was run in 20 mM TrisCl, pH 8.0, GDP-L-Galactose, with 1 mM D-Mannose-1-Phosphate. GDP-L-Galactose was either used directly from the Glycoteam product (in which case high backgrounds were observed due to contaminating L-Galactose-1-Phosphate) or GDP-L-Galactose was generated using the epimerase. In the latter case, 0.21 mg of epimerase was incubated with GDP-D-Mannose in 20 mM Tris Cl pH 8 in a total volume of 400 μL (see Wolucka et al., 2001) for 30 minutes at 20 C and then used directly in the assay at a 1 to 20 dilution. Assays were either terminated after 10 minutes by heating to 100 C for three minutes, or directly coupled to the phosphatase and L-Galactose dehydrogenase to measure product formation during the assay. Heat terminated assays were cooled on ice, centrifuged to remove precipitated protein and L-Galactose assayed using the coupling enzymes described above (see also (Laing et al., 2004)). Assays for L-Galactose were linear with added L-Galactose-1-Phosphate over the range measured. Backgrounds were run using the empty vector control, which gave the same result as a boiled enzyme control.
As an alternative assay, LCMS was used to identify the forward reaction described above as well measure as the reverse pyrophosphorylase reaction where GTP (1 mM) and L-Galactose-1-Phosphate were incubated as above and the formation of GDP-L-Galactose followed. GDP-D-Mannose and GDP-L-Galactose were separated by HPLC before MS. LC-MS employed an LTQ linear ion trap mass spectrometer fitted with an ESI interface (ThermoQuest, Finnigan, San Jose, Calif., USA) coupled to an EttanTM MDLC (GE Healthcare Bio-Sciences). Separation of GDP-D-Mannose and GDP-L-Galactose was achieved using a Hypercarb column (Thermo Electron, USA), 100×2.1 mm maintained at 40 C. Solvents were (A) 50 mM ammonium acetate and (B) acetonitrile and the flow rate was 200 uL/min. The initial mobile phase, 5% B was held for 3 min, then ramped linearly to 20% B at 11 min, held for 5 min, then ramped linearly to 70% B at 19 min and held for 5 min before resetting to the original conditions. Retention times for GDP-D-Mannose and GDP-L-Galactose were 16.8 min and 17.5 min, respectively.
MS data was acquired in the negative mode using both a selective reaction monitoring (SRM) method SRM m/z 604>m/z 344, 362, 424, 442 and a selected ion monitoring (SIM) method SIM m/z 604. This SIM method monitors only the (M-H)— ion for GDP-D-Mannose and GDP-L-Galactose while the SRM method monitors the distinctive daughter ions formed by fragmenting the precursor ion (M-H)— for both compounds. Both methods maximise sensitivity by screening out any chemical noise from other compounds present. The ESI voltage, capillary temperature, sheath gas pressure, sweep gas and auxiliary gas were set at −10 V, 350° C., 25 psi, 3 psi, and 3 psi, respectively. Separation of D-Mannose-1-Phosphate and L-Galactose-1-Phosphate was achieved isocratically using a Hypercarb column (Thermo Electron, USA), 100×2.1 mm maintained at 40° C. Solvents were (A) 20 mM ammonium acetate and (B) methanol and the flow rate was 200 uL/min. Using a mobile phase of 2% B the retention times for D-Mannose-1-Phosphate and L-Galactose-1-Phosphate were 4.3 min and 4.9 min, respectively. MS data was acquired in the negative mode using both a selective reaction monitoring (SRM) method SRM m/z 259>m/z 79, 97 and a selected ion monitoring (SIM) method SIM m/z 259. […]

[4] = test system: Tobacco (Nicotiana benthamiana) leaves; test: Leaf ascorbate after transient transformation of tobacco leaves; format: in vivo
Source text: (§3) Tobacco (Nicotiana benthamiana) was transiently transformed with Agrobacterium containing the kiwifruit gene for GDP-L-Galactose Guanyltransferase (EST 319998) cloned in pGreen (Hellens et al., 2000) mixed with Agrobacterium containing the gene for the silencing suppressor P19 as previously described (Hellens et al., 2005). Controls were run using Agrobacterium containing P19 in pGreen alone. Tobacco leaves were harvested 9 days after transformation and frozen in liquid nitrogen.
Ascorbate was extracted as described previously in metaphosphoric acid without reducing agent (Davey et al., 2003; Rassam and Laing, 2005). […]

[5] = substrate: O=P(O)(O)O[C@H]1O[C@H](CO)[C@@H](O)[C@H](O)[C@@H]1O; test: purified protein, by the assay type; settings: other: varying concentrations of the guanyl acceptor; continuous coupled assay; FIG. 3; pH 8.0; 20.0 °C
[6] = test system: Nicotiana tabacum ‘Samsun’; test: Leaf ascorbate in stably transformed tobacco; format: in vivo; settings: two kanamycin resistant lines; FIG. 22
Procedure: Tobacco was transformed with 319998 and Kanamycin resistant lines selected. These plants were transferred to soil and grown until several leaves were expanded. Ascorbate and gene expression was measured in these leaves (FIG. 22).
Nicotiana tabacum ‘Samsun’ was transformed using Agrobacterium tumefaciens strain GV101 carrying the pHex vector containing EST 319998. Methods used were as described by Guerineau et al (1990), except kanamycin was used instead of sulphonamide selective agents at the rate of 100 mg.L-1.

[7] = test system: Tobacco (Nicotiana benthamiana) leaves; test: Transferase activity in extracts of transiently transformed tobacco leaves; format: in vivo; settings: transient expression in pGreen mixed with P19
Procedure: The transferase activity in tobacco leaves was measured by extracting liquid nitrogen ground leaves in approximately five volumes of TrisCI pH 8.0, 2 mM DTT and 1 mM EDTA, centrifuging, desalting the supernatant using a NAP desalting column equilibrated with the same buffer and assaying the enzyme using the coupled assay described above. Protein in the extracts was measured using the Biorad Bradford Coumassie assay (Bradford, 1976) using BSA as a standard.
as §3

[8] = Transferase activity of E. coli expressed enzymes (coupled reaction and LCMS); format: biochemical; settings: enzyme expressed in E. coli, His tag purified
Procedure: Expression of genes in E. coli. The EST 319998 from young fruit of Actinidia chinensis and At4g26850 were each cloned into pET30A (Novagene, USA), their sequence checked and expressed in E. coli. The N terminal His6 tag was used to purify the protein. An empty vector control was expressed and purified in parallel. Techniques were essentially as described earlier (Laing et al., 2004). In much of this work the His-protein was further purified on a 5 mL HiTrap Q FF column (GE Healthcare), and identical results were obtained with both preparations.
as §2, with “control. […]” for “control.”
as §1

Arabidopsis plants = test: Leaf ascorbate in stably transformed Arabidopsis plants; format: in vivo, Arabidopsis thaliana; settings: third generation, kanamycin resistant plants; FIGS. 20A-20B
Procedure: In the second generation, up to 12 plants from each line, selected from the kanamycin plates, were grown to a standard size of a complete rosette of leaves in the glasshouse and ascorbate measured (FIG. 19). […] The increased ascorbate ranged up to over 4 times the normal level of ascorbate in Arabidopsis leaves.
Selected plants from the second generation were taken on to the next generation. […] Again the applicants observed plants with leaf ascorbate over 4 times the control level (FIGS. 20A-20B), but again within a line with high ascorbate progeny, there were always plants with high and low ascorbate in spite of all plants coming from a high ascorbate kanamycin resistant parent. […] Regions of complete sequence identity are found, when the 319998 and Arabidopsis sequence is aligned (data not shown). This could account for the apparent silencing seen.

| Molecule | acid stability [1] | transferase activity, Coupled assay [2] [nmoles/sec/ug protein] | transferase activity, LCMS [3] | effect on leaf ascorbate ([4]; His tag in front of the transferase sequence in pGreen, FIGS. 17A-17B) | function of construct in raising leaf ascorbate ([4]; transferase cloned into pGreenII 0229 62-SK (bialaphos resistance), FIGS. 17A-17B) | effect on leaf ascorbate ([4]; transient expression with P19) | increase in leaf ascorbate compared to control leaves ([4]; transient expression with P19, listed as 319998) | effect on leaf ascorbate ([4]; transient expression with P19, listed as 319998_Ac) | increase in leaf ascorbate compared to control leaves ([4]; transient expression with P19, listed as transferase) [fold] | Leaf ascorbate levels, average ([4]; transient expression with P19, mean of three plants, three leaves per plant, harvested 9 days after transformation) | Relative amount of ascorbate ([4]; transient expression with P19, relative to controls) | Km [5] [µM] | increase in leaf ascorbate [6] [%] | GDP-L-Galactose Guanyltransferase activity in leaf extract [7] | GDP-L-Galactose Guanyltransferase activity of the expressed enzyme [8] | leaf ascorbate relative to the control level (Arabidopsis plants) |
| --- | --- | --- | --- | --- | --- | --- | --- | --- | --- | --- | --- | --- | --- | --- | --- | --- |
| Nc1nc2c(ncn2[C@@H]2O[C@H](COP(=O)(O)OP(=O)(O)OC3O[C@@H](CO)[C@@H](O)[C@@H](O)[C@@H]3O)[C@@H](O)[C@H]2O)c(=O)[nH]1 (stereo partly drawn) [GDP-L-Galactose] | extremely acid labile | 0.017 | high BG |  |  |  |  |  |  |  |  |  |  |  |  |  |
| B1 |  |  |  | active in increasing leaf ascorbate | fully functional | usually was the most effective gene | three fold increase in ascorbate | increased ascorbate levels in the leaf | ~3 | 102.0 | 3.0 | 110 ± 30 | 60 | measurable activity could be measured in the extract of the leaves | could catalyse the conversion of GDP-L-Galactose to L-Galactose-1-P | over 4 times |
